Laboratory results reported in PMC4555227, “GABPα Binding to Overlapping ETS and CRE DNA Motifs Is Enhanced by CREB1: Custom DNA Microarrays”.
Substitutions are numbered along the chain they refer to.

T1: GABPα-GST (ETS domain);CREB1 B-ZIP domain (mouse?;mouse, UniProt Q00422;Q01147 320-400;269-327, |)
T1 sequence 1: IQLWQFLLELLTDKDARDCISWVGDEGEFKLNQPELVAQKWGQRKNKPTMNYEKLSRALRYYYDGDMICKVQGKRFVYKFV
T1 sequence 2: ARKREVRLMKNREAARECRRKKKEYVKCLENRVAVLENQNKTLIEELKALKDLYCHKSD

T2: GABPα-GST (ETS domain) (UniProt Q00422 320-400)
T2 sequence: T1 sequence 1

B1: CC SNP CGGGAAGT (dsDNA)
DNA 1: GTCCTCAAGACGGGAAGTGACGTCACGACTCAGGTGGGACACACTTTAACACATGGAGAG
DNA 2: CTCTCCATGTGTTAAAGTGTGTCCCACCTGAGTCGTGACGTCACTTCCCGTCTTGAGGAC
B2: CC SNP TCGGAAGT (dsDNA)
DNA 1: B1 DNA 1 with C11T, G12C
DNA 2: B1 DNA 2 with C49G, G50A
B3: CC SNP CCGGAACT (dsDNA)
DNA 1: B1 DNA 1 with G12C, G17C
DNA 2: B1 DNA 2 with C44G, C49G
B4: CC SNP CCGGACGT (dsDNA)
DNA 1: B1 DNA 1 with G12C, A16C
DNA 2: B1 DNA 2 with T45G, C49G
B5: CC SNP CCGGAAA(T) (dsDNA)
DNA 1: B1 DNA 1 with G12C, G17A
DNA 2: B1 DNA 2 with C44T, C49G
B6: ETS-CRE GC motif probe (dsDNA)
DNA 1: B1 DNA 1 with C11G, G12C
DNA 2: B1 DNA 2 with C49G, G50C
B7: GC SNP GCGGAAA(T) (dsDNA)
DNA 1: B1 DNA 1 with C11G, G12C, G17A
DNA 2: B1 DNA 2 with C44T, C49G, G50C
B8: GC SNP GGGGAAGT (dsDNA)
DNA 1: B1 DNA 1 with C11G
DNA 2: B1 DNA 2 with G50C
B9: GC SNP GCGGAACT (dsDNA)
DNA 1: B1 DNA 1 with C11G, G12C, G17C
DNA 2: B1 DNA 2 with C44G, C49G, G50C

Molecular target: T1, GABPα-GST (ETS domain);CREB1 B-ZIP …
Experiment: PBM; 8 ng:8 ng plasmid; PBM as in Badis et al. 2009 (buffer, salt, pH, temperature not stated); IVT proteins from 2.5-100 ng plasmid; Alexa Fluor 647 anti-GST detection
Details: protein: ivt;ivt; tags: GST;none; copies: 1;2; blunt

Binder	binding signal
B1	~16 fold increase by CREB1
B2	< 20 fold increase by CREB1 (up to)
B3	20 fold increase by CREB1
B4	< 20 fold increase by CREB1 (up to; abstract up to 23, most enhanced SNP)
B5	2 fold increase by CREB1

Molecular target: T2, GABPα-GST (ETS domain)
Experiment: PBM; GABPα-GST alone; PBM as in Badis et al. 2009 (buffer, salt, pH, temperature not stated); IVT proteins from 2.5-100 ng plasmid; Alexa Fluor 647 anti-GST detection
Details: protein: ivt; tags: GST; blunt

Binder	binding signal
B6	4 fold weaker than N1

Molecular target: T1, GABPα-GST (ETS domain);CREB1 B-ZIP …
Experiment: PBM; 8 ng:8 ng plasmid; PBM as in Badis et al. 2009 (buffer, salt, pH, temperature not stated); IVT proteins from 2.5-100 ng plasmid; Alexa Fluor 647 anti-GST detection
Details: protein: ivt;ivt; tags: GST;none; copies: 1;2; blunt
Remark: another data set of the same source

Binder	binding signal
B7	16 fold increase by CREB1
B8	~8 fold increase by CREB1
B9	8 fold increase by CREB1
